Laboratory results from article PMC5853329, “EjNAC3 transcriptionally regulates chilling-induced lignification of loquat fruit via physical interaction with an atypical CAD-like gene”.

Experiments:
EjNAC3 [1] = target: T1, EjNAC3 (Eriobotrya japonica (loquat), UniProt A0A2D3HXD3 1-352); assay: EMSA; 5 mM Mg2+, poly(dI-dC), biotinylated probe 1 nM (legend; Methods 2 nM); LightShift kit binding buffer, 5 mM MgCl2, 2.5% glycerol, 0.05% NP-40, 50 ng/ul poly(dI-dC), 50 ng protein, 20 min room temperature; 6% native PAGE, 0.5x TBE; pH and salt not given; details: protein: recombinant; tags: His (pET-32a fusion); chain copies: 2; blunt
T1 sequence: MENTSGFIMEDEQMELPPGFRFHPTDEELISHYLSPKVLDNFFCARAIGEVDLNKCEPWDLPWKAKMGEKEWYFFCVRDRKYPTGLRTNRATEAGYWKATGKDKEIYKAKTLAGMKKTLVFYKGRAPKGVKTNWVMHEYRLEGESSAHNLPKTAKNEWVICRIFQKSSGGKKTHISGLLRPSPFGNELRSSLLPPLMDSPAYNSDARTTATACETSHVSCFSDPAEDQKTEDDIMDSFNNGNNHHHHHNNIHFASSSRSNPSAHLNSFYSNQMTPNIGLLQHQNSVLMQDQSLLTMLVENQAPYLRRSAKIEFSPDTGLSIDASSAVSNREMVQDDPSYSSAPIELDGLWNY

EjNAC3 [2] = target: T1, EjNAC3; assay: competition; cold probe 100 or 300 nM vs 1 nM biotinylated probe; reduces shift; LightShift kit binding buffer, 5 mM MgCl2, 2.5% glycerol, 0.05% NP-40, 50 ng/ul poly(dI-dC), 50 ng protein, 20 min room temperature; 6% native PAGE, 0.5x TBE; pH and salt not given; details: protein: recombinant; tags: His (pET-32a fusion); chain copies: 2; label: none; blunt

B1: EjCAD-like promoter probe (-502 to -454) (dsDNA)
DNA 1: GTCCTATACGTAATCTTATACTCCAAATAAAATTAGGAATGCAGCATAA
DNA 2: TTATGCTGCATTCCTAATTTTATTTGGAGTATAAGATTACGTATAGGAC
binding result (EjNAC3 [1]): binds

B2: EjCAD-like promoter cold probe (-502 to -454) (dsDNA)
DNA 1: B1 DNA 1
DNA 2: B1 DNA 2
binding result (EjNAC3 [2]): binds
